Measurements published in patent US20060193849A1.

Target: MUC-1 gene product, the membrane mucin glycoprotein (polymorphic epithelial mucin or PEM) (human) (UniProt P15941)
Test: flow cytometry equilibrium binding on MCF7 cells
Settings: scFv

MUC-1 gene product, the membrane mucin glycoprotein (polymorphic epithelial mucin or PEM) (human), sequence (P15941 24-1255): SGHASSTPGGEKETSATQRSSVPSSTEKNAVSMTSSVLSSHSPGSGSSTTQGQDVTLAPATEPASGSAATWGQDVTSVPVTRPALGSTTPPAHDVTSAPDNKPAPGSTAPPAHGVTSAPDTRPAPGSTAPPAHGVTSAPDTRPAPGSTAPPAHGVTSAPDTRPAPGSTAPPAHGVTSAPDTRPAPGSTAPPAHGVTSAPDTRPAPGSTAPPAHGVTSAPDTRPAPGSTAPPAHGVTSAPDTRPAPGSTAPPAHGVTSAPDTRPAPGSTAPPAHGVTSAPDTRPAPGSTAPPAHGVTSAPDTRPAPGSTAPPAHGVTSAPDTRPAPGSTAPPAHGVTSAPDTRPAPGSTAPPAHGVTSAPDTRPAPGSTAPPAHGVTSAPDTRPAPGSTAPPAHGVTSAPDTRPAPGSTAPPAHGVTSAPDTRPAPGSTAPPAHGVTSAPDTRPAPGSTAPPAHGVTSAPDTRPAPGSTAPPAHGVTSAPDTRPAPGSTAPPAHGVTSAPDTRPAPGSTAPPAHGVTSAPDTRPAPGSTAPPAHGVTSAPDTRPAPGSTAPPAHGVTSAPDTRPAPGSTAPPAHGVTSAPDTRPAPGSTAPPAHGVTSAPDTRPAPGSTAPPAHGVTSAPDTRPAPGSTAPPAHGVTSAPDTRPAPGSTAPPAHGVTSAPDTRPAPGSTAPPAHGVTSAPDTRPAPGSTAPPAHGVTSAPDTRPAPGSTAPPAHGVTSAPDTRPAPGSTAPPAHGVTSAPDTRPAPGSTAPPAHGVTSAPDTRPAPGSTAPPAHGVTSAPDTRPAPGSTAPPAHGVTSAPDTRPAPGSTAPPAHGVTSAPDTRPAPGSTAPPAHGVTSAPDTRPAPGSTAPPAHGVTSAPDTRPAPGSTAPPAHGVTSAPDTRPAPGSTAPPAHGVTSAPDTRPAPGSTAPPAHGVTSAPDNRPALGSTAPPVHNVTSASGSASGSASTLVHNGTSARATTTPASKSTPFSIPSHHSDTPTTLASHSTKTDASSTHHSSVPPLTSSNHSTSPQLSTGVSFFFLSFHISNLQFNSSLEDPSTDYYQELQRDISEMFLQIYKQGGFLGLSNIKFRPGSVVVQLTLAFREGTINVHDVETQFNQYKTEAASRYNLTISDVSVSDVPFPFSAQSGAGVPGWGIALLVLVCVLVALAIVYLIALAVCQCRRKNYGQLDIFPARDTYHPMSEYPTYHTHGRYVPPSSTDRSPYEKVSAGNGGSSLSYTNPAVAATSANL

Substance: huHMFG1 wild-type scFv 22W
- Kd: 199 nM
